Experimental data: patent publication US20220119534A1 (DRAGONFLY THERAPEUTICS, published 2022)
Numbering of substitutions follows the chain as printed. Names and notes keep the numbering of the source. Values joined by “and” are separate entries in the source; they are usually repeats but may differ in a detail not shown here. Identical values can stand only once. One block for each binder: values may come before it.

Assays:
mFc-cNKG2D = target: T1, mFc-cNKG2D (cynomolgus monkey, UniProt P61252 73-216); test: SPR Biacore 37 C; mFc-tagged cyno NKG2D dimer, TriNKET as analyte; 1:1 kinetic fit; average of 4
T1 construct: extracellular domain; Made in house (Dragonfly Tx); also called recombinant cyno NKG2D extracellular domain (ECD); mFc-tagged cyno NKG2D dimer; not shown: mouse Fc tag
T1 sequence (looked up): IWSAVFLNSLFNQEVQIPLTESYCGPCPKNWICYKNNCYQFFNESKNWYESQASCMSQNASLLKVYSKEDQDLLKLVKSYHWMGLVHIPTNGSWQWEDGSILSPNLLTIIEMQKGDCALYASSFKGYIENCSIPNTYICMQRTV

Human CLEC12A-His [1] = target: T2, Human CLEC12A-His (human, UniProt Q5QGZ9 65-265); test: SPR Biacore 8K 37 C; TriNKET captured on anti-hFc chip, hCLEC12A-His as analyte; 1:1 fit; after 2 wks 25 C in CST pH 7.0, n=2
T2 construct: Recombinant soluble protein made in house (Dragonfly Tx); The hCLEC12A spot of the HuProt array is written under this molecule as well; also called hCLEC12A-His; hCLEC12A; not shown: His tag
T2 sequence: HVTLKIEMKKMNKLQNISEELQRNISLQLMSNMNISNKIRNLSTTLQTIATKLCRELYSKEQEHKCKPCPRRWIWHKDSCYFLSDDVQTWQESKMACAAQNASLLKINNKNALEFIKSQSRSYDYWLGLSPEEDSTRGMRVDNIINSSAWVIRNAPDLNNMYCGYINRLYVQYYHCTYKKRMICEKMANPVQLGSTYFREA

Human CLEC12A-His [2] = target: T2, Human CLEC12A-His; test: SPR Biacore 8K 37 C; TriNKET captured on anti-hFc chip, hCLEC12A-His as analyte; 1:1 fit; un-oxidized control, n=2
Human CLEC12A-His [3] = target: T2, Human CLEC12A-His; test: SPR Biacore 8K 37 C; TriNKET captured on anti-hFc chip, hCLEC12A-His as analyte; 1:1 fit; after low pH hold (pH 3.3, 1.5 h), n=4
Human CD32a H131 = target: T3, Human CD32a H131 (human, UniProt P12318 36-218, limits assumed, biotinylated); test: SPR, steady state fit; average for AB0192
T3 construct: Bought recombinant receptor; also called hFcγRIIa H131
T3 sequence (looked up): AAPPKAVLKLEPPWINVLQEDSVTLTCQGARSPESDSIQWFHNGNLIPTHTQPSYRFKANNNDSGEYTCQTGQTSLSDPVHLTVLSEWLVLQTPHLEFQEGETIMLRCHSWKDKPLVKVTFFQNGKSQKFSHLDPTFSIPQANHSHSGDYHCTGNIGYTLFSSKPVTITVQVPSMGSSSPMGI

Human CD32a R131 = target: T4, Human CD32a R131 (human, UniProt P12318 36-218, limits assumed, biotinylated); test: SPR, steady state fit; average for AB0192
T4 construct: Bought recombinant receptor; also called hFcγRIIa R131
T4 sequence (looked up): T3 sequence (looked up) with H132R

[4] = target: T5, mFc-hNKG2D (recombinant mFc-tagged human NKG2D dimer) (human, UniProt P26718 73-216); test: SPR; control sample
T5 construct: extracellular domain; Made in house; not shown: mouse Fc tag
T5 sequence (looked up): T1 sequence (looked up) with N43D, I133T

[5] = target: T6, Human CD16a V158 (FcγRIIIa V158) (human, UniProt P08637 17-208, biotinylated); test: SPR; control sample
T6 construct: Bought recombinant receptor; also called hCD16aV; hFcγRIIIa V158

[6] = target: T6, Human CD16a V158 (FcγRIIIa V158); test: SPR; after forced oxidation
[7] = target: T7, Human CLEC12A-His (recombinant, K244 WT) (human, UniProt Q5QGZ9 65-265); test: SPR, untreated CLEC12A, two-state fit
T7 construct: Made in house (Dragonfly Tx); also called hCLEC12A; hCLEC12A-His; not shown: His tag
T7 sequence: T2 sequence

[8] = target: T8, recombinant human CD32a H131 (human, UniProt P12318 36-218, limits assumed, biotinylated); test: SPR 25C, steady state
T8 construct: also called FcγRIIa H131
T8 sequence (looked up): T3 sequence (looked up)

[9] = target: T9, recombinant human CLEC12A-His (human, UniProt Q5QGZ9 65-265); test: SPR, CLEC12A binding
T9 construct: also called hCLEC12A-His; hCLEC12A
T9 sequence: T2 sequence

[10] = target: T10, human CLEC12A expressed on cells (human, UniProt Q5QGZ9 1-265); test: flow cytometry, HL60
T10 construct: Transduced isogenic cells or endogenous expression on AML cells; also called RMA-hCLEC12A; Ba/F3-hCLEC12A
T10 sequence: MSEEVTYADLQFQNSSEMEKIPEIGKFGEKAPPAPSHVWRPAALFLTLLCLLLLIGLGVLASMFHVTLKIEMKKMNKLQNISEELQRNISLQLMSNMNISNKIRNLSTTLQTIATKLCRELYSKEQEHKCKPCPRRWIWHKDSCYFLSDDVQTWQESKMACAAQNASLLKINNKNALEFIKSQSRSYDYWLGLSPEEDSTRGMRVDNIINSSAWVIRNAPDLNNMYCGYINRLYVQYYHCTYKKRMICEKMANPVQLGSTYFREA

T6 sequence (P08637 17-208 F176V limits assumed): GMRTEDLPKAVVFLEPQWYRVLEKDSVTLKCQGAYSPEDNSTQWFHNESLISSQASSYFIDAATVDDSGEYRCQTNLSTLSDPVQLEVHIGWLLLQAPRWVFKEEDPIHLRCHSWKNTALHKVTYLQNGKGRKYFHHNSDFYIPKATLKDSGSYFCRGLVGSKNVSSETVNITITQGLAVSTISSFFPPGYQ

B1: F3'-1602 TriNKET (bispecific antibody, human IgG1, kappa)
chain: QLQLQESGPGLVKPSETLSLTCTVSGFSLTNYGLHWIRQPPGKCLEWIGVIWSGGKTDYNPSLKSRVTISKDTSKNQFSLKLSSVQAADTAVYYCAKYDYDDSLDYWGQGTLVTVSSGGGGSGGGGSGGGGSGGGGSDIQMTQSPSSLSASVGDRVTITCHASQNINFWLSWYQQKPGKAPKLLIYEASNLHTGVPSRFSGSGSGTRFTLTISSLQPEDIATYYCQQSHSYPLTFGCGTKLEIKGSDKTHTCPPCPAPELLGGPSVFLFPPKPKDTLMISRTPEVTCVVVDVSHEDPEVKFNWYVDGVEVHNAKTKPREEQYNSTYRVVSVLTVLHQDWLNGKEYKCKVSNKALPAPIEKTISKAKGQPREPRVYTLPPCRDELTKNQVSLTCLVKGFYPSDIAVEWESNGQPENNYKTTPPVLVSDGSFTLYSKLTVDKSRWQQGNVFSCSVMHEALHNHYTQKSLSLSPG
heavy: EVQLVESGGGLVKPGGSLRLSCAASGFTFSSYSMNWVRQAPGKGLEWVSSISSSSSYIYYADSVKGRFTISRDNAKNSLYLQMNSLRAEDTAVYYCARGAPIGAAAGWFDPWGQGTLVTVSSASTKGPSVFPLAPSSKSTSGGTAALGCLVKDYFPEPVTVSWNSGALTSGVHTFPAVLQSSGLYSLSSVVTVPSSSLGTQTYICNVNHKPSNTKVDKKVEPKSCDKTHTCPPCPAPELLGGPSVFLFPPKPKDTLMISRTPEVTCVVVDVSHEDPEVKFNWYVDGVEVHNAKTKPREEQYNSTYRVVSVLTVLHQDWLNGKEYKCKVSNKALPAPIEKTISKAKGQPREPQVCTLPPSRDELTENQVSLTCLVKGFYPSDIAVEWESNGQPENNYKTTPPVLDSDGSFFLYSWLTVDKSRWQQGNVFSCSVMHEALHNHYTQKSLSLSPG
light: DIQMTQSPSSVSASVGDRVTITCRASQGISSWLAWYQQKPGKAPKLLIYAASSLQSGVPSRFSGSGSGTDFTLTISSLQPEDFATYYCQQGVSFPRTFGGGTKVEIKRTVAAPSVFIFPPSDEQLKSGTASVVCLLNNFYPREAKVQWKVDNALQSGNSQESVTEQDSKDSTYSLSSTLTLSKADYEKHKVYACEVTHQGLSSPVTKSFNRGEC
notes: Trispecific F3' format: CLEC12A scFv-Fc paired with NKG2D Fab-Fc; Stressed and control samples of the stability studies are the same molecule; also called AB0237
koff (mFc-cNKG2D): 0.141 s⁻¹
kon (mFc-cNKG2D): 168000 M⁻¹ s⁻¹
Kd (Human CLEC12A-His [1]): 0.93 nM
koff (Human CLEC12A-His [1]): 0.000765 s⁻¹
kon (Human CLEC12A-His [1]): 824000 M⁻¹ s⁻¹
Kd (Human CLEC12A-His [2]): 1.1 nM
koff (Human CLEC12A-His [2]): 0.000858 s⁻¹
kon (Human CLEC12A-His [2]): 799000 M⁻¹ s⁻¹
Kd (Human CLEC12A-His [3]): 0.644 nM
kon (Human CLEC12A-His [3]): 715000 M⁻¹ s⁻¹

B4: F3'-1602 TriNKET (other)
chain: B1 chain
heavy: B1 heavy
light: B1 light
notes: CLEC12A scFv-Fc, NKG2D A49MI Fab-Fc, human IgG1 Fc; also called AB0237
Kd [8]: 900 nM and 800 nM
Kd [9]: 0.6 nM
EC50 [10]: 1.6 nM
Max binding MFI [10]: 924 MFI

Other lines, results leading:

Kd (Human CD32a H131): 1010 nM
Kd (Human CD32a R131): 1400 nM
B2: AB0192 TriNKET (other)
chain: EVQLVESGGGVVQPGGSLRLSCAASGFTFNAFGMHWVRQAPGKCLEWVAFISSGSTSIYYANTVKGRFTISRDNSKNTLYLQMNSLRAEDTAVYYCARDGYPTGGAMDYWGQGTSVTVSSGGGGSGGGGSGGGGSGGGGSDIQMTQSPSSLSASVGDRVTITCKASQDIYNYLSWFQQKPGKAPKPLIYRANILVSGVPSRFSGSGSGQDYTFTISSLQPEDIATYYCLQFDAFPFTFGCGTKLEIKGSDKTHTCPPCPAPELLGGPSVFLFPPKPKDTLMISRTPEVTCVVVDVSHEDPEVKFNWYVDGVEVHNAKTKPREEQYNSTYRVVSVLTVLHQDWLNGKEYKCKVSNKALPAPIEKTISKAKGQPREPRVYTLPPCRDELTKNQVSLTCLVKGFYPSDIAVEWESNGQPENNYKTTPPVLVSDGSFTLYSKLTVDKSRWQQGNVFSCSVMHEALHNHYTQKSLSLSPG
heavy: B1 heavy
light: B1 light
notes: the condition stands under assay; also called AB0192 Lot AB0192-005

Kd [4]: 772 nM
koff [4]: 0.135 s⁻¹
kon [4]: 175000 M⁻¹ s⁻¹
Kd [5]: 323 nM
koff [5]: 0.0276 s⁻¹
kon [5]: 85300 M⁻¹ s⁻¹
Kd [6]: 320 nM
koff [6]: 0.0277 s⁻¹
kon [6]: 86500 M⁻¹ s⁻¹
Kd [7]: 0.6 nM
B3: AB0089 TriNKET (bispecific antibody, human IgG1, kappa)
chain: B1 chain with S53V, K56A, K71V, Y98G, D101G, S103T, R207D, I220F
heavy: B1 heavy
light: B1 light
notes: F3' format heterodimer of three chains; human IgG1 Fc with EW-RVT and Y349C/S354C mutations; also called AB0089 Lot AB0089-002; CLEC12A TriNKET AB0089
